Results: patent publication US10064939B2, “Combination therapy using c-Met inhibitor and IGF-1R inhibitor for c-Met inhibitor resistant cancers” (Samsung Electronics Co., Ltd., priority 2014, dated 2018)

B1: scFv of huAbF46: scFv of structure VH-linker-VL from heavy and light chain variable regions of huAbF46 (protein)
scFv: EVQLVESGGGLVQPGGSLRLSCAASGFTFTDYYMSWVRQAPGKGLEWLGFIRNKANGYTTEYSASVKGRFTISRDNSKNTLYLQMNSLRAEDTAVYYCARDNWFAYWGQGTLVTVSSGLGGLGGGGSGGGGSGGSSGVGSDIQMTQSPSSLSASVGDRVTITCKSSQSLLASGNQNNYLAWHQQKPGKAPKMLIIWASTRVSGVPSRFSGSGSGTDFTLTISSLQPEDFATYYCQQSYSAPLTFGQGTKVEIKR
B2: L3-1Y/IgG2: anti-c-Met antibody: huAbF46-H4-A1 variable regions, human IgG2 hinge and constant region, human kappa light chain with His36Tyr (antibody)
heavy: EVQLVESGGGLVQPGGSLRLSCAASGFTFTDYYMSWVRQAPGKGLEWLGFIRNKANGYTTEYSASVKGRFTISRDNSKNTLYLQMNSLRAEDTAVYYCARDNWFAYWGQGTLVTVSSASTKGPSVFPLAPCSRSTSESTAALGCLVKDYFPEPVTVSWNSGALTSGVHTFPAVLQSSGLYSLSSVVTVPSSNFGTQTYTCNVDHKPSNTKVDKTVERKCCVECPPCPAPPVAGPSVFLFPPKPKDTLMISRTPEVTCVVVDVSHEDPEVQFNWYVDGVEVHNAKTKPREEQFNSTFRVVSVLTVVHQDWLNGKEYKCKVSNKGLPAPIEKTISKTKGQPREPQVYTLPPSREEMTKNQVSLTCLVKGFYPSDIAVEWESNGQPENNYKTTPPMLDSDGSFFLYSKLTVDKSRWQQGNVFSCSVMHEALHNHYTQKSLSLSPGK
light: DIQMTQSPSSLSASVGDRVTITCKSSQSLLASGNQNNYLAWYQQKPGKAPKMLIIWASTRVSGVPSRFSGSGSGTDFTLTISSLQPEDFATYYCQQSYSRPYTFGQGTKVEIKRTVAAPSVFIFPPSDEQLKSGTASVVCLLNNFYPREAKVQWKVDNALQSGNSQESVTEQDSKDSTYSLSSTLTLSKADYEKHKVYACEVTHQGLSSPVTKSFNRGEC

Legend:
[1] = test system: MKN45 re#1 gastric cancer cells; test: Cell proliferation, CellTiter Glo assay, anti-c-Met antibody resistance induced cell line MKN45 re#1; type: cell-based; conditions: 72 hours; for cell proliferation inhibition effect: single treatment: L3-1Y/IgG2 (2 μg/ml) only or linsitinib (10 uM) only, FIG. 7
Method: (§1) In particular, in order to obtain anti-c-Met antibody resistant MKN45 gastric cancer cells, MKN45 gastric cancer cells were administered with L3-1Y/IgG2 for at least 3 months by increasing the administration concentration. The amount of L3-1Y/IgG2 administered was increased from 1 μg/ml to 10 μg/ml, until resistance to L3-1Y/IgG2 is induced. The obtained L3-1Y/IgG2 resistant clones were named as MKN45re#1 and MKN45re#24, respectively.
(§2) In order to confirm the acquisition of resistance to L3-1Y/IgG2, the prepared L3-1Y/IgG2 resistant clones (MKN45 re#1 and MKN45 re#24) and MKN45 with no resistance were administered with various concentrations of L3-1Y/IgG2 (see FIG. 9). 72 hours after the antibody administration, the number of living cells was measured through CellTiter Glo assay (Promega, G7573).
(§3) The prepared L3-1Y/IgG2 resistance induced cell lines MKN45re#1 and MKN45re#24 were co-administered with L3-1Y/IgG2 and an IGF-1R inhibitor, to examine changes in cell proliferation of the L3-1Y/IgG2 resistance induced cell lines. Each of the L3-1Y/IgG2 resistant MKN45re#1 and MKN45re#24 cell lines was seeded on a 96-well plate at the amount of 10000 cells/well (medium: RPMI (GIBCO); culture conditions: 5% CO2 and 37° C.), and on the next day, treated with L3-1Y/IgG2 (2 μg/ml) and linsitinib (10 uM) together. 72 hours after the co-treatment, the number of living cells was counted by CellTiter Glo assay (Promega, G7573). For comparison, the same experiments were conducted using a control group with no treatment of L3-1Y/IgG or linsitinib, a group treated with L3-1Y/IgG (2 μg/ml) only, and a group treated with linsitinib (10 uM) only.

[2] = test system: MKN45 re#24 gastric cancer cells; test: Cell proliferation, CellTiter Glo assay, anti-c-Met antibody resistance induced cell line MKN45 re#24; type: cell-based; conditions: 72 hours; for cell proliferation inhibition effect: single treatment: L3-1Y/IgG2 (2 μg/ml) only or linsitinib (10 uM) only, FIG. 8
Method: as §1, §2, §3

c-Met = c-Met (Homo sapiens, UniProt P08581); test: Specificity of expressed scFv to c-Met; type: binding; conditions: after expression
c-Met, sequence (P08581 25-1390): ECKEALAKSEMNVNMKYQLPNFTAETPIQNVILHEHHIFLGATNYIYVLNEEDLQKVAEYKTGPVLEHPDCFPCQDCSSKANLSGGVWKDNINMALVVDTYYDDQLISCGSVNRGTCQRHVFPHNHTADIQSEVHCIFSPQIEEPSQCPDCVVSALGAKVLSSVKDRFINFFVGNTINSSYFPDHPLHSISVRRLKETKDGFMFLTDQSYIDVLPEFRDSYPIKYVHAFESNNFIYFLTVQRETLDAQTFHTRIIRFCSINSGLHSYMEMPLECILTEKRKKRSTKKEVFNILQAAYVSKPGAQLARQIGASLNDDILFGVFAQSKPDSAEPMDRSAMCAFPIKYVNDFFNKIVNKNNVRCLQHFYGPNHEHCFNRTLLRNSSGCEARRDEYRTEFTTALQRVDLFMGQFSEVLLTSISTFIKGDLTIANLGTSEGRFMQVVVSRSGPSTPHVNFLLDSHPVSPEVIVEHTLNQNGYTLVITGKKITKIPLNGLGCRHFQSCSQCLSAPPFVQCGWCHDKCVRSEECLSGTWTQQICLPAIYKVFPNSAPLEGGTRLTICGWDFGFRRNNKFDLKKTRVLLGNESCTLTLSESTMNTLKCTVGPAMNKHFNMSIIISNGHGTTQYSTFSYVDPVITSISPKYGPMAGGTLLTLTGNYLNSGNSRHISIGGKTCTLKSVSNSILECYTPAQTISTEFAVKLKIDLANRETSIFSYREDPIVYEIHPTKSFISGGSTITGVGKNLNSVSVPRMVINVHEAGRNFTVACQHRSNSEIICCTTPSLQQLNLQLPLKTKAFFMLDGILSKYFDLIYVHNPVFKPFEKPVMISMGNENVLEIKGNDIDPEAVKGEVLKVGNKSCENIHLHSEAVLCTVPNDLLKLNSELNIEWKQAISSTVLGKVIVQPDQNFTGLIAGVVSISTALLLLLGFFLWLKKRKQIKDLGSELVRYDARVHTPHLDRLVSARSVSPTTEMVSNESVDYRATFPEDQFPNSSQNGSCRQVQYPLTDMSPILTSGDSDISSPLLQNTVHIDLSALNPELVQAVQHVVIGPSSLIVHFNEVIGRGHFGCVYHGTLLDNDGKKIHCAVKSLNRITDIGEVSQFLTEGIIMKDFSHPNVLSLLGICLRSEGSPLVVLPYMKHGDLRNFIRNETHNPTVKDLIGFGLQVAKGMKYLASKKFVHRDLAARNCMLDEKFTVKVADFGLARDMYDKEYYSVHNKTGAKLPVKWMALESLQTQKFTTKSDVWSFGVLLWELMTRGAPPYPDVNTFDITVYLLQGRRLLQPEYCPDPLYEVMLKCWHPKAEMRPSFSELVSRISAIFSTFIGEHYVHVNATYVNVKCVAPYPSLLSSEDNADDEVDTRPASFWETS
Text: For use in constructing an scFv of the huAbF46 antibody from the heavy and light chain variable regions of the huAbF46 antibody, a gene was designed to have the structure of “VH-linker-VL” for each of the heavy and the light chain variable region, with the linker including the amino acid sequence “[…]” (SEQ ID NO: 54). A polynucleotide sequence (SEQ ID NO: 55) encoding the designed scFv of huAbF46 was synthesized in Bioneer and an expression vector for the polynucleotide had the nucleotide sequence of SEQ ID NO: 56.

YCC-11 cell line = test: Anticancer effect of anti-c-Met antibody used alone, YCC-11; type: cell-based
Hs746T cell line = test: Anticancer effect of anti-c-Met antibody used alone, Hs746T; type: cell-based
SNU-5 cell line = test: Anticancer effect of anti-c-Met antibody used alone, SNU-5; type: cell-based
MKN45 cells = test: Cell proliferation, non-resistant MKN45 cells; type: cell-based
Method: as §2

SNU-668 cell line = test: Anticancer effect of anti-c-Met antibody used alone, SNU-668; type: cell-based
[3] = various, increasing concentrations of L3-1Y/IgG2, FIG. 9

Row | Molecule | cell proliferation inhibition effect [1] | cell proliferation inhibition effect [2] | specificity to c-Met (c-Met) | anticancer effect when used alone (YCC-11 cell line) | anticancer effect when used alone (Hs746T cell line) | proliferation (number of living cells) [1, 3] | anticancer effect when used alone (SNU-5 cell line) | effect (cancer cell proliferation inhibition effect) when administered alone (MKN45 cells) | anticancer effect when used alone (SNU-668 cell line) | proliferation (number of living cells) [2, 3]
1 | CC1(O)CC(c2nc(-c3ccc4ccc(-c5ccccc5)nc4c3)c3c(N)nccn23)C1 (stereo not drawn) [linsitinib, 3-[8-Amino-1-(2-phenyl-7-quinolyl)imidazo[1,5-a]pyrazin-3-yl]-1-methyl-cyclobutanol, reference compound] | no cell proliferation inhibition effect | no cell proliferation inhibition effect |  |  |  |  |  |  |  | 
2 | B1 |  |  | exhibit specificity to c-Met |  |  |  |  |  |  | 
3 | B2 | no cell proliferation inhibition effect | no cell proliferation inhibition effect |  | does not exhibit anticancer effect | exhibits anticancer effect | not inhibited | exhibits anticancer effect | exhibits its effect | does not exhibit anticancer effect | not inhibited
